Data: US10239925B2, “Peptides and combination of peptides for use in immunotherapy against ovarian cancer and other cancers” (IMMATICS BIOTECHNOLOGIES GMBH, priority 2015, dated 2019)

biological target: HLA-A*02:01 (Homo sapiens, UniProt P04439, D140Y/D185E/D98H/E176V/E277Q/G131W/G231S/I119V/I121R/I166T/I218V/L300P/L318F/N151K/N90K/P208A/P217A/Q86G/Q94H/R138H/R169H/T345S); assay: MHC binding assay (UV-ligand exchange, anti-β2m ELISA, peptide exchange yield); conditions: binding to HLA-A*02:01
How it was run: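 Peptide-MHC complexes formed by UV-ligand exchange, cleaving a UV-sensitive placeholder peptide in favour of the test peptide. Exchange yield measured by ELISA: monomers diluted 100-fold onto streptavidin-coated plates, 1 h 37 °C, detected with 2 ug/ml HRP anti-β2m and TMB, absorbance at 450 nm.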

Peptide exchange (MHC class I binding score, peptide exchange yield), “++” (>20% = ++):
115 (AIAGAGILYGV; listed as Homo sapiens) [compound 115]
412 (YLDDLNEGVYI; listed as Homo sapiens) [compound 412]
353 (YLFEMDSSL; listed as Homo sapiens) [compound 353]
253 (GLDAATATV; listed as Homo sapiens) [compound 253]
570 (ALANQIPTV; listed as Homo sapiens) [compound 570]
176 (YLMEGSYNKVFL; listed as Homo sapiens) [compound 176]
494 (ALQPEPIKV; listed as Homo sapiens) [compound 494]
278 (QLLDVVLTI; listed as Homo sapiens) [compound 278]
574 (YLLQEPPRTV; listed as Homo sapiens) [compound 574]

Peptide exchange (MHC class I binding score, peptide exchange yield), “++++” (>75% = ++++):
339 (GLWEIENNPTVKA; listed as Homo sapiens) [compound 339]
52 (FLLAHGLGFLL; listed as Homo sapiens) [compound 52]

Peptide exchange (MHC class I binding score, peptide exchange yield), “+++” (>50 = +++):
557 (KLYDDMIRL; listed as Homo sapiens) [compound 557]
304 (MTLGQIYYL; listed as Homo sapiens) [compound 304]
75 (GLLEVMVNL; listed as Homo sapiens) [compound 75]
593 (GLPRFGIEMV; listed as Homo sapiens) [compound 593]
13 (YLMDESLNL; listed as Homo sapiens) [compound 13]
307 (ALPVSLPQI; listed as Homo sapiens) [compound 307]
498 (KLWTGGLDNTV; listed as Homo sapiens) [compound 498]
256 (FLPPEHTIVYI; listed as Homo sapiens) [compound 256]
561 (YLQLTQSEL; listed as Homo sapiens) [compound 561]
610 (LLAPTPYIIGV; listed as Homo sapiens) [compound 610]
67 (TLLAEALVTV; listed as Homo sapiens) [compound 67]
179 (KVLNELYTV; listed as Homo sapiens) [compound 179]
117 (ILPDGEDFLAV; listed as Homo sapiens) [compound 117]
361 (ALYELEGTTV; listed as Homo sapiens) [compound 361]
257 (SIFSAFLSV; listed as Homo sapiens) [compound 257]
139 (SVMEVNSGIYRV; listed as Homo sapiens) [compound 139]
616 (VLIDEVESL; listed as Homo sapiens) [compound 616]
